Assay [1] addresses T1, FcγRIIa (H167) (Homo sapiens, UniProt P12318).
T1 construct: purchased Acro Biosystems
T1 sequence (P12318 36-218 limits assumed): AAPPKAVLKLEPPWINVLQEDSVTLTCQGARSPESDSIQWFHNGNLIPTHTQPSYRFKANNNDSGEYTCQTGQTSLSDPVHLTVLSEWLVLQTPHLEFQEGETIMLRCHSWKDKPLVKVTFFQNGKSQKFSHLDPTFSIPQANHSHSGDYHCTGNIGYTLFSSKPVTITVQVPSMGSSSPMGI
Nature of the assay: FcγR affinity by biolayer interferometry (Octet Red96e). It counts as binding. As to the method:
(§1) VHH-Fcs were also tested for affinity to FcγRs by biolayer interferometry using the Octet Red96e platform. Each cycle is performed with orbital shake speed of 1,000 rpm. Streptavidin (SA) biosensors (Sartorius 18-5019) were rehydrated for 10 mins using kinetics buffer (PBS+0.1% BSA+0.02% Tween-20). Biotinylated-FcγRs (Acro Biosystems) were then loaded for 40-100 s onto SA biosensors at concentrations ranging between 1-5 μg/mL diluted in PBS. VHH-Fcs were serially diluted 1:2 in sample buffer (PBS+0.02% Tween-20) with starting concentrations ranging between 5000 nM to 37.5 nM. Loaded biosensors were then associated with VHH-Fcs for 60-120 s. VHH-Fc dissociation was measured for 30-900 s in sample buffer. Bound VHH-Fcs were then removed using 3 cycles of 5 s regeneration buffer (150 mM NaCl, 300 mM Sodium Citrate) and 5 s sample buffer. The data was analyzed either using a globally-fitted 1:1 Langmuir binding model (FcγRI) or steady state analysis (Octet software version HT v11.1).
In general terms: BLI is a label-free optical method that tracks binding on a fibre tip over time.

Assay [2] deals with T2, FcγRIIIa (F176) (Homo sapiens, UniProt P08637).
T2 construct: purchased Acro Biosystems
The description is as above. Type of assay: binding. How it is done: as §1

Assay [3] concerns the target T3, FcγRI (Homo sapiens, UniProt P12314).
T3 construct: purchased Acro Biosystems
The assay is described as above. It counts as binding. As to the method:
as §1

The target of assay [4] is T4, FcγRIIIa (V176) (Homo sapiens, UniProt P08637, F176V).
T4 construct: purchased Acro Biosystems
Described as above. Type of assay: binding. As to the method:
as §1

In assay [5] the target is T5, FcγRIIb/c (Homo sapiens, UniProt P31994).
T5 construct: purchased Acro Biosystems
T5 sequence (P31994 43-310): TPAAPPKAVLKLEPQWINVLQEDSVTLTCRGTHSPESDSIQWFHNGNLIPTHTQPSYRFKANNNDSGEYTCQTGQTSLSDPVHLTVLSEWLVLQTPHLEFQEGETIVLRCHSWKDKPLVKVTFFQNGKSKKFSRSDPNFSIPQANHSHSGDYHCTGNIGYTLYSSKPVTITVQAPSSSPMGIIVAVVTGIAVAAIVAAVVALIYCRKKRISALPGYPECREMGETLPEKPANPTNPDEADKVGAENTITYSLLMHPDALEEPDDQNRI
Described as above. It counts as binding. As to the method: as §1

In assay [6] the target is T6, FcγRIIa (R167) (Homo sapiens, UniProt P12318, H167R).
T6 construct: purchased Acro Biosystems
T6 sequence (P12318 36-218 H167R limits assumed): T1 sequence (P12318 36-218 limits assumed) with H132R
Described as above. It counts as binding. How it is done: as §1

The target of assay [7] is T7, human insulin (Homo sapiens, UniProt P01308).
T7 construct: 5 μg/mL of human insulin (SigmaAlrich, Cat #: I9278); purchased SigmaAlrich I9278
The assay can be described thus: Polyreactivity ELISA. As to conditions: 10 μg/mL VHH-Fc; signal normalized to non-coated well. Type of assay: binding. How it is done:
Polyreactivity of VHH-Fcs against negatively charged biomolecules was determined by ELISA (As in Avery et al., “Establishing in vitro in vivo correlations to screen monoclonal antibodies for physicochemical properties related to favorable human pharmacokinetics.” MAbs. 2018 February/March; 10(2):244-255). Briefly, ELISA plate was coated with 5 μg/mL of human insulin (SigmaAlrich, Cat #: I9278) and 10 μg/mL of double stranded DNA (SigmaAlrich, Cat #: D1626-250MG) overnight. The plate was blocked with ELISA buffer (PBS, 1 mM EDTA, 0.05% Tween-20, pH 7.4). 10 μg/mL of test VHH-Fcs was loaded onto the plates in quadruplicates and incubated for 2 hours. Goat anti-human Fc(0.01 ug/ml) conjugated with HRP was then added and the plate incubated for 1 hour. The signal was developed with TMB and A450 absorbance was measured with Synergy Neo2 plate reader. The signal was normalized with the signal of non-coated well for each antibody tested.

In assay [8] the test system is BT474. The assay can be described thus: ABC (Antibody Binding Capacity) assay, receptor density. It counts as cell-based. How it is done:
(§2) In order to test efficacy of the immunoconjugate binding with respect to target density receptor density was measured on target positive cell lines. Target density was measured using the ABC (Antibody Binding Capacity) assay. Cancer cells expressing the target of interest, as well as a negative control cell line, were harvested with cell dissociation buffer, seeded at about 5×10^4 cells per well into 96-well V bottom plate (Sarstedt 82.1583.001). Cells were tested for receptor expression using QuantiBRITE PE beads (BD Cat #340495) and a PE-conjugated anti-hu IgG (Biolegend clone HP6017) following the manufacturers' instructions. In brief, VHH-Fc and isotype control antibodies were prepared at suitable saturating concentrations based on previous experiments. Antibody sample dilutions were incubated with the panel of cell lines on ice for 1 hour. Cells were washed twice with 1% FBS in 1×PBS (FACS buffer), centrifuged at 400 G for 4 min. Cells were then incubated with 4 μg/mL mouse PE-conjugated anti-hu and DAPI (1:1000) for 30 minutes on ice. Cells were washed twice with FACS buffer, centrifuged at 400 G for 4 minutes and resuspended in FACS buffer. Fluorescence intensity on the PE channel was measured on the iQue Screener platform, and data were processed with ForeCyt software. The amount of PE signal generated from the different primary antibody was then fit to a standard curve based off of known PE molecules/Quantibrite bead samples to determine the number of antibody-binding sites per cell. Relative antibody binding sites correlate to the number of antigens or receptors on cell surface.

Assay [9] relates to SHP-77. Described as above. It counts as cell-based. As to the method:
as §2

The test system of assay [10] is HCT-116. Described as above. Type of assay: cell-based. As to the method:
as §2

For assay [11], the system named is HEK-DLL3. The description is as above. Type of assay: cell-based. How it is done:
as §2

For assay [12], the system named is HEK293-6E. The assay is described as above. It counts as cell-based. How it is done:
as §2

Where a chain is given by its changes, count along the chain named.

By Kd is commonly meant the concentration at which binding is half-saturated. High values mean weaker binding, low ones tighter binding.

T2 sequence (P08637 17-208 limits assumed): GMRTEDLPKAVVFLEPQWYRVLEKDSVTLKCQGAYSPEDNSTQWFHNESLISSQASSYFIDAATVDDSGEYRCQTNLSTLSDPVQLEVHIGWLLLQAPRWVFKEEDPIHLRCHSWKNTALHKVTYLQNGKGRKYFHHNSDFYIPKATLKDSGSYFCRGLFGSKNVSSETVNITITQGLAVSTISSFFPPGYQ
T4 sequence (P08637 17-208 F176V limits assumed): as the sequence (P08637 17-208 limits assumed) above, with F160V counted along it
T3 sequence (P12314 16-374): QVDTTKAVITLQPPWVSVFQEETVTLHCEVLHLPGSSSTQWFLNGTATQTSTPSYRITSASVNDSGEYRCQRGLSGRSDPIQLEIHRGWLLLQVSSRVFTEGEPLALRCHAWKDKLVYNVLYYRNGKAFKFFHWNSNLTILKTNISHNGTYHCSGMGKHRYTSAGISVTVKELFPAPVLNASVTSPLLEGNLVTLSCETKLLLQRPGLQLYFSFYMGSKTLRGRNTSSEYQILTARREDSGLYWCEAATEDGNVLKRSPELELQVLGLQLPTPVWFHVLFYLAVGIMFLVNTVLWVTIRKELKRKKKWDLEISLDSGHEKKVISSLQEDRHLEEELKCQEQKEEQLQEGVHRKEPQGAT
T7 sequence (P01308 25-54 limits assumed): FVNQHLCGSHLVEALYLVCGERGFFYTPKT
T7 sequence (P01308 90-110 limits assumed): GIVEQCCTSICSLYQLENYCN

For “H101: anti-HER2 VHH-Fc (2RS15d VHH, human IgG1 Fc); FcRn wt, Fc effector wt [Compound H101]”, the dissociation constant (Kd) was found to be 340 nM in [1]; 1600 nM in [2]; 1.01 nM in assay [3]; 480 nM in assay [4]; 450 nM in assay [5]; 160 nM in [6]. Besides, the “Polyreactivity Assay Score, Insulin” value in assay [7] is 1.176. Further, the “Estimated number of epitopes/cell” value in assay [8] is 401604 epitopes/cell; in assay [9], 572 epitopes/cell; in [10], 2604 epitopes/cell; in [11], 1490 epitopes/cell; in assay [12], 1935 epitopes/cell.
